Assays:
[1] = molecular target: T1, human PTK7, full length, on the cell surface (human, UniProt Q13308 31-1070); assay: cell-based or functional assay
T1 sequence: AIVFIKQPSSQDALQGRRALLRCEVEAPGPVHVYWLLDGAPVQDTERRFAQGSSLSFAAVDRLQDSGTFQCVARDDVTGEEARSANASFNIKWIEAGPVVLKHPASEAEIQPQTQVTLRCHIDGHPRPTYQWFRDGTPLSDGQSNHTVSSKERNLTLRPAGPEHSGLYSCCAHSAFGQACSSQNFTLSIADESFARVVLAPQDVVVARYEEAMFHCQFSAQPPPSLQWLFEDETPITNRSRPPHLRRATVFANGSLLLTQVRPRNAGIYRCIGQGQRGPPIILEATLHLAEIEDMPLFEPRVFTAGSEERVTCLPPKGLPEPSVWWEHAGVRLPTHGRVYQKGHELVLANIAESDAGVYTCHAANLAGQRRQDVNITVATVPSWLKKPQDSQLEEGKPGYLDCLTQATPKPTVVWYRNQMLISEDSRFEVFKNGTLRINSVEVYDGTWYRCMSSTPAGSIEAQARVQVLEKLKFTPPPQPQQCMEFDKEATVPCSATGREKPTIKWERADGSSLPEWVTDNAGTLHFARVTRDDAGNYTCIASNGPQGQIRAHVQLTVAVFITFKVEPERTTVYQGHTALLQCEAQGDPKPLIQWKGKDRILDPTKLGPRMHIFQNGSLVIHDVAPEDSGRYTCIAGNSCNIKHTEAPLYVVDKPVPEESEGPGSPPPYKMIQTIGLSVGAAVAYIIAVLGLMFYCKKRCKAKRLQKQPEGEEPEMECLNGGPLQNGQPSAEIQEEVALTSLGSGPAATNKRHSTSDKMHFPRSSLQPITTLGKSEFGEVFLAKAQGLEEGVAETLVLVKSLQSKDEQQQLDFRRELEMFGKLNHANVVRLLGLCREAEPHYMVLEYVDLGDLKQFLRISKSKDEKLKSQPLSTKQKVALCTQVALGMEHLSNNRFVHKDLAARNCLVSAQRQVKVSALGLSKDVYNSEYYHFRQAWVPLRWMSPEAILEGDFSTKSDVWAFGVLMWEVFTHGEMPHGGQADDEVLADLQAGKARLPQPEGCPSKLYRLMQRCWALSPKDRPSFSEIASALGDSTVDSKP

[2] = molecular target: T1, human PTK7, full length, on the cell …; assay: flow cytometry (MFI) on Wilms' tumor cell line G-401
Method: The nephroblastoma Wilms' tumor cell line G-401 (ATCC Acc No. CRL-1441) was tested for binding of the HuMAb anti-PTK7 human monoclonal antibodies 12C6 and 7C8 at different concentrations. Binding of the anti-PTK7 human monoclonal antibodies was assessed by incubating 1×10⁵ cells with antibody at a starting concentration of 30 μg/ml and serially diluting the antibody at a 1:10 dilution. The cells were washed and binding was detected with a PE-labeled anti-human IgG Ab. Flow cytometric analyses were performed using a FACScan flow cytometry (Becton Dickinson, San Jose, Calif.). The anti-PTK7 monoclonal antibodies 12C6 and 7C8 bound to the nephroblastoma Wilms' tumor cell line in a concentration dependent manner, as measured by the mean fluorescent intensity (MFI) of staining. The EC₅₀ values for the anti-PTK7 monoclonal antibodies 12C6 and 7C8 was 4.0 nM and 3.4 nM, respectively.

[3] = molecular target: T1, human PTK7, full length, on the cell …; assay: flow cytometry (MFI) on cancer cell lines that express cell surface PTK7, antibody at 10 ug/ml
Method: Anti-PTK7 antibodies were tested for binding to a variety of cancer cell lines by flow cytometry.
Binding of the 3G8, 12C6a, 4D5 and 12C6 anti-PTK7 human monoclonal antibodies to a panel of cancer cell lines was assessed by incubating cancer cell lines with anti-PTK7 human monoclonal antibodies at a concentration of 10 μg/ml. The cancer cell lines that were tested were A-431 (ATCC Acc No. CRL-1555), Wilms tumor cells G-401 (ATCC Acc No. CRL-1441), Saos-2 (ATCC Acc No. HTB-85), SKOV-3 (ATCC Acc No. HTB-77), PC3 (ATCC Acc No. CRL-1435), DMS 114 (ATCC Acc No. CRL-2066), ACHN (ATCC Ace No. CRL-1611), LNCaP (ATCC Acc No. CRL-1740), DU 145 (ATCC Acc No. HTB-81), LoVo (ATCC Acc No. CCL-229) and MIA PaCa-2 (ATCC Acc No. CRL-1420). An isotype control antibody was used as a negative control. The cells were washed and binding was detected with a FITC-labeled anti-human IgG Ab. Flow cytometric analyses were performed using a FACScan flow cytometry (Becton Dickinson, San Jose, Calif.). The anti-PTK7 monoclonal antibodies 3G8, 12C6a, 4D5 and 12C6 bound to the cancer cell lines A-431, Wilms tumor cells G-401, Saos-2, SKOV-3, PC3, DMS 114, ACHN, LNCaP, DU 145, LoVo and MIA PaCa-2, as measured by the mean fluorescent intensity (MFI) of staining.

[4] = molecular target: T2, recombinant extracellular domain of PTK7 (human, UniProt Q13308 31-704); assay: ELISA (legend of FIG. 15; members named in paragraph 547)
T2 construct: also called PTK7 extracellular domain
T2 sequence: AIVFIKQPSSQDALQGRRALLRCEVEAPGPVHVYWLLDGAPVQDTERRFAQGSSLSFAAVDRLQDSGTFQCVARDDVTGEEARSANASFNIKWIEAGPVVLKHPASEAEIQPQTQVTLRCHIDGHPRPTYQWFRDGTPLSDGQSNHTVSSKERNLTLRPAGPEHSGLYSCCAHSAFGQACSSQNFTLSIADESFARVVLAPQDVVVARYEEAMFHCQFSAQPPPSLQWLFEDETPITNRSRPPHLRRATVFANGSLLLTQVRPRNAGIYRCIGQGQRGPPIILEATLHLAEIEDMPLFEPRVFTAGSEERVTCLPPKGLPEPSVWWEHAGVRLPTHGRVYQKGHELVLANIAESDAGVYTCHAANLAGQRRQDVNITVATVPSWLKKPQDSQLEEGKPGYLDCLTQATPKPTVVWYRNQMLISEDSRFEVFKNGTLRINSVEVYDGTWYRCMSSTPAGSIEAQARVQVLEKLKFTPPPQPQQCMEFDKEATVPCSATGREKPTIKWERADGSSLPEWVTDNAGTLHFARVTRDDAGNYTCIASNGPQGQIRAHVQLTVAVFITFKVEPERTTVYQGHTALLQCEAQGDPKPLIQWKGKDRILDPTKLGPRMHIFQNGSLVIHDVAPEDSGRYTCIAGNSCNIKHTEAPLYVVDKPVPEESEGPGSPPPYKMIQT
Method: The binding of anti-PTK7 antibodies was also assessed by standard ELISA to examine the specificity of binding for PTK7.
Recombinant extracellular domain of PTK7 was tested for binding against the anti-PTK7 human monoclonal antibodies 3G8, 4D5, 12C6 and 12C6a at different concentrations. Standard ELISA procedures were performed. The anti-PTK7 human monoclonal antibodies were added at a starting concentration of 10 μg/ml and serially diluted at a 1:2 dilution. Goat-anti-human IgG (kappa chain-specific) polyclonal antibody conjugated with horseradish peroxidase (HRP) was used as secondary antibody. Each of the anti-PTK7 human monoclonal antibodies 3G8, 4D5, 12C6 and 12C6a bound to PTK7.

B1: anti-PTK7 human monoclonal antibody 3G8 (antibody, V domains shown)
VH: QVQLVESGGGVVQPGRSLRLSCAASGFIFSNYAMHWVRQAPGKGLEWVAVISYDGNNKYYADSVKGRFTISRDNSKNTLYLQMNSLRAEDTAVYYCAREVWSIDNWGQGTLVTVSS
VL: DIQMTQSPSSLSASVGDRVTITCRASQGISSWLAWYQQKPEKAPKSLIYAASSLQSGVPSRFSGSGSGTDFTLTISSLQPEDFATYYCQQYNSYPRTFGQGTKVEIK
EC50 of the decrease in 3H-thymidine incorporation, Hum-Zap internalization assay, Wilms' tumor cells G-401 [1]: 600 pM

B2: anti-PTK7 human monoclonal antibody 4D5 (antibody, V domains shown)
VH: QVQLVESGGGVVQPGRSLRLSCAASGFTFSSYAFHWVRQAPGKGLEWVAVISYDGSIKYYADSVKGRFTISRDNSKNTLYLQMNSLRAEDTAVYYCARTYYFDYWGQGTLVTVSS
VL: EIVLTQSPDFQSVTPKEKVTITCRASQSIGSSLHWYQQKPDQSPKLLIKYASQSFSGVPSRFSGSGSGTDFTLTINSLEAEDAAAYYCHQSSSLPITFGQGTRLEIK
EC50 of the decrease in 3H-thymidine incorporation, Hum-Zap internalization assay, Wilms' tumor cells G-401 [1]: 300 pM

B3: anti-PTK7 human monoclonal antibody 12C6 (antibody, V domains shown)
VH: EVQLVQSGGGLVHPGGSLRLSCAGSGFTFSTYLMYWVRQAPGKTLEWVSAIGSGGDTYYADSVKGRFTISRDNAKNSLYLQMNSLRAEDMAVYYCARGLGYWGQGTLVTVSS
VL: not shown
notes: Human IgG kappa from a hybridoma
EC50 [2]: 4000 pM
EC50 of the decrease in 3H-thymidine incorporation, Hum-Zap internalization assay, A-431 cells [1]: 200 pM
EC50 of the decrease in 3H-thymidine incorporation, Hum-Zap internalization assay, PC3 tumor cells [1]: 300 pM
EC50 of the decrease in 3H-thymidine incorporation, Hum-Zap internalization assay, Wilms' tumor cells G-401 [1]: 200 pM

B4: anti-PTK7 human monoclonal antibody 7C8 (antibody, V domains shown)
VH: QVQLVESGGGVVQPGRSLRLSCAASGFTFSSYGMHWVRQAPGKGLEWVAVIWDDGSNKYYVDSVKGRFTISRDNSKNTLYLQMNSLRAEDTAVYYCARDDYYGSGSFNSYYGTDVWGQGTTVTVSS
VL: EIVLTQSPATLSLSPGERATLSCRASQSVSIYLAWYQQKPGQAPRLLIYDASNRATGIPARFSGSGSGTDFTLTISSLEPEDFAVYYCQQRSNWPPFTFGPGTKVDIK
notes: as for B3
EC50 [2]: 3400 pM
EC50 of the decrease in 3H-thymidine incorporation, Hum-Zap internalization assay, A-431 cells [1]: 200 pM
EC50 of the decrease in 3H-thymidine incorporation, Hum-Zap internalization assay, PC3 tumor cells [1]: 300 pM
EC50 of the decrease in 3H-thymidine incorporation, Hum-Zap internalization assay, Wilms' tumor cells G-401 [1]: 200 pM

B5: anti-PTK7 human monoclonal antibody 12C6a (antibody, V domains shown)
VH: EVQLVQSGGGLVHPGGSLRLSCAGSGFTFSTYLMYWVRQAPGKTLEWVSAIGSGGDTYYADSVKGRFTISRDNAKNSLYLQMNSLRAEDMAVYYCARGLGYWGQGTLVTVSS
VL: DIQMTQSPSSLSASVGDRVTITCRASQGISSWLAWYQQKPEKAPKSLIYAASSLQSGVPSRFSGSGSGTDFTLTISSLQPEDFATYYCQQYNSYPYTFGQGTKLEIK
notes: Same heavy chain variable region as 12C6, different light chain; Human IgG kappa from a hybridoma
binding result [3]: binds
binding result [4]: binds
